{"source": "paper PMC3571956", "key": {"[1]": {"target": "HEV ORF3 and GFP1 fusion protein (genotype 1) (hepatitis E virus genotype 1 (W2-1 strain))", "assay": "co-IP; Matchmaker Chemiluminescent Co-IP System; 293FT cells co-transfected with pAcGFP1-ORF3 and pProLabel-prey, lysed at 48 h; precipitated with anti-HEV ORF3 polyclonal antibody; ProLabel chemiluminescence (RLU) read on the beads; three independent tests"}, "[2]": {"target": "HEV ORF3 and GFP1 fusion protein (genotype 1) (hepatitis E virus genotype 1 (W2-1 strain))", "assay": "co-IP; Matchmaker Chemiluminescent Co-IP System; 293FT cells co-transfected with pAcGFP1-ORF3 and pProLabel-prey, lysed at 48 h; precipitated with anti-AcGFP (GFP1) polyclonal antibody; ProLabel chemiluminescence (RLU) read on the beads"}}}
{"binder": "Hemopexin, ProLabel fusion (natural protein) TPLPPTSAHGNVAEGETKPDPDVTERCSDGWSFDATTLDDNGTMLFFKGEFVWKSHKWDRELISERWKNFPSPVDAAFRQGHNSVFLIKGDKVWVYPPEKKEKGYPKLLQDEFPGIPSPLDAAVECHRGECQAEGVLFFQGDREWFWDLATGTMKERSWPAVGNCSSALRWLGRYYCFQGNQFLRFDPVRGEVPPRYPRDVRDYFMPCPGRGHGHRNGTGHGNSTHHGPEYMRCSPHLVLSALTSDNHGATYAFSGTHYWRLDTSRDGWHSWPIAHQWPQGPSAVDAAFSWEEKLYLVQGTQVYVFLTKGGYTLVSGYPKRLEKEVGTPHGIILDSVDAAFICPGSSRLHIMAGRRLWWLDLKSGAQATWTELPWPHEKVDGALCMEKSLGPNSCSANGPGLYLIHGPNLYCYSDVEKLNAAKALPQPQNVTSLLGCTH", "values": [{"measurement": "chemiluminescent intensity", "setting": "[1]", "value": 1140, "unit": "RLU"}, {"measurement": "chemiluminescent intensity", "setting": "[2]", "value": 614, "unit": "RLU"}]}
